Source: the DeepSol protein solubility set

Assay: soluble on expression in E. coli; label from the status in PepcDB or PDB records

Question: Which “soluble on expression in E. coli” value does the source give for “MGSDKIHHHHHHMNPPPFRLFLAIRSLHKGGAERQMVELAKGLDKERFALTLCTLYGGGELERELKESGVEIFCLHKRGRSDFSFLRRYRTLIQEQNPKAIYSFLPEMNLFSLMASRFLKRSPKILWGFRSSDMDVKSYGWQSRLYYAAQKLLSPFASKIITNSHHSLAYHKHIGYCMKRAQVIHNGIDTKRFSPSLELRESFRQRYHLKDKIAIGIAARMDIAKGYPYLAKAAKIILSRYPKVLFFAAGEIDPLLQKECLEILGQEGERFIWLGGVERMEEVYNGWDILVSSSLTESFSNSIAEGMACALAPIATDVGDTSVILGEVGTLIPPKDSEMLAQKLALMIESDFKTEGERARERIVTLFSLEAMIQNSTKAILTCAES” here?
Answer: Its value is “not soluble”.

Question: Which “soluble on expression in E. coli” value does the source give for “MGSDKIHHHHHHASCSNDDDEMDKYQKIYIRTGVAPGAEMGAAVVVDCVSNSSTADRSDFEIQLCAVQPVTRDVTAALGVDTLKVDTYNSANKTKCKLLPQDNYTIETSEVVLKTGQTVADSSFQVVLKNIEKLTNPDGYVLPVTLKGVTGMDEQAVSTSMKTVYIRIYTSVLYTSYTKPGNWSAVDRSAWSVSCSNVYADDDAKYGAHLAIDGEINTTWFTWGVANAGECWWNTVLDRPVTLTGFSVTKQSAYGSGYNLRSAEIKVRKEGETEWVTYPRVLTFRNFKGADPQYAAIEPPIPNVKEFRINCLTPDNYTGFAEINLYVKQ” here?
Answer: The value was “not soluble”.

Question: For “MMKKLFLDTHSASGEIKLTDGLLYWFPQFLTPIQADQAFQQMLTHLDWQQKSIRLFGKSVLQPRLIAWYGEKGYRYSGLSLSAQPFPPPLLTLKTQCEQAAQAPFNSVLANLYRDGQDSMGWHQDNEPELGSNPVIASLSLGESRRFLLRHHKDHALQVECELNHGDLLIMAGNTQHFWQHAIPKTRQTKQTRINLTFRNILLEHHHHHH”, which “soluble on expression in E. coli” value is on record?
Answer: The value was “soluble”.

Question: With “MSLCQLLGMNCNTPTDIMFSFEGFRRRGGITDHHADGFGIGFFEGKGVRLFHDDKPSVNSPVADLVRAYQIKSENVIAHIRKASQGQTSLANTHPFMREMWGGYWLFAHNGHLIDFFPEQGEFFHPVGTTDSERAFCHILNRLRTRFAARPDDDTLFDAIAGLTHEIRKFGLFNFMLSDGIALFAHASTLLHYIVRQAPFGKEGHHHHHH” as the sequence, how does the “soluble on expression in E. coli” value read?
Answer: The value was “not soluble”.

Question: For “MTMQLIGKKSFPRKANRGAKTRNPSIYWNYRQFICSSSSGYPIPMNFSDEFDFDEDRVYEMLCSDDENTTDYSDEIIAIIDANMRSLWIFQL”, which “soluble on expression in E. coli” value is on record?
Answer: The value was “not soluble”.

Question: Which “soluble on expression in E. coli” value does the source give for “MNIQLSPLEARVIGCLIEKEVTTPDHYPLTLNSLTTACNQKSNREPVLNLSEAEVQDTVEGLIARRLVSDESSFNSRTSKYQHRFCNTEFGDLKLNQQELGLICCLLLRGAQTPGELRTRTNRLCTFTDVKETEAVLERLANRDSGALVVKLPREPGKRESRYHHLFCGEVDMAA” here?
Answer: The value was “soluble”.

Question: With “MGSDKIHHHHHHMADAATLKARVAQIFREAWTTREGQKVPDPGDVKLGNDAVEFEKATILYADLSGSTDLVNAHGWTFAAEIYKTYLHCAATIIRDEGGSIVSYDGDRVMGVFIGDPQTTPAARAGLKINYAVQEIINPALKAQYPSNTFVVRQVVGIDTSPIRAARTGVRGDNDLVWVGRAANYAAKLTELKLDERTWITKEAYDRLTDDAKFGGANRTLMWKFYRWSQMNDHPIYGSTWRWSL” as the sequence, how does the “soluble on expression in E. coli” value read?
Answer: Its value is “not soluble”.

Question: Which “soluble on expression in E. coli” value does the source give for “MGSDKIHHHHHHMFLDGEEGLIGYIIVTGTAGAGKSSLVGALADRITSLGANVATLNLDPAAEKLPYDPSVDARDYVSVAELMDKGLGPNGALVAAVDSLINHVLDIREEIDYYSPDYVVVDTPGQLELFAYRVGGPLVLRGIMGDYNGVNIFLIDSIFIDNAISLVSALLLASSVAVRLGLPQVNAVSKADMLLPEVREEVIPRLGEPGFLEFLLEKDKTYEGAGKALAEELARAIETTGFIGEVLQASVLEPETVTLLAAKAQQILAGGDDYKIYDITGQ” here?
Answer: Its value is “not soluble”.

Question: Which “soluble on expression in E. coli” value does the source give for “MTETLDHMDQSKIDHQKLAQQLLAQAKAEGVELVGPNGLLNQLTANVLETALEAEMDEHLGYEKHHVTGRNRENSRNGRRTKTVLTEIGPVQIQVPRDTDASFDPQIVKKRQRRLTGVDEIILSLSAKGLTTGEIAAHFDDVYGASVSKETISKITDKVLTEMAEWSVRPLDPVYPVLFIDAIHVKIRDGQVANRPVYVAIGVTTAGEREILGLWAGDGGEGAKFWLAVLTEIRNRGVADVCIAVCDGLKGLPDAITTVWPLTVVQTCLIHLLRNTFRYASRQYWDEMSRDLRPIYTAVNEAAAKEQFTEFADKWGPRYPAIVRLWESAWSEFVPFLDYDPEIRRVICSTNAIESLNARYRRAVRARGHFPSEQAALKCLYLATRSLDPTGKGRARWVTRWKPALNAFAITFEGRITPTVI” here?
Answer: The value was “not soluble”.

Question: With “MLRDKSVNLDDGDPFTIALFGVDSNAERNANGGGQRSDTIMVLSVNPEKKTTEIVSIPRDTQADIVGKGTTEKINHAYAYGGPDMAVKSLEKLLNVPIDHYATIDMDGMQDMIDTVGGITVTSNATFSYDGYQFTEGERSKMDGKEAMAFIRSRKEDGAGGDFGRQERQQLVIQGLANKLTSVSSITHFNSLMNHVEDNVKTDLSVGELNKVRSNYKDANDNVNRHQLEGQGGIQDDGLYYFVPSENSLNEIETNVKDNLGILEHHHHHH” as the sequence, how does the “soluble on expression in E. coli” value read?
Answer: Its value is “soluble”.

Question: Which “soluble on expression in E. coli” value does the source give for “MCGRFVLFTTDESLLGHPALRIFHSIHAPKGMPPARYNIAPTTIIPILRVGTTPTEAVIEPARWGLIPAWKREVTLPPLFNARAETVTTKPSFRQAFSTQRCAIPMDGYYEWHNKKPYWITTGAPTWVAGLWDSGAGMLSATMITTDSVAPLDWLHHRMPRFLNNDELAVWLRGSADEASGLLTPGDASAFHTSLADPSVGNIRNDYPELIDAPTDLFSLLEHHHHHH” here?
Answer: Its value is “soluble”.

Question: Which “soluble on expression in E. coli” value does the source give for “MTPIHVVGIGLDGLPGLAAAVQQIIDSATLLVGSDRHLQLIPQGDTPRLSLGNFNASLKAIQTHLDTTANPQVVILTSGDPLFYGLGRWLLEVFAPDQLTFHPHLSAVQLAFSRLKLPWQDAVIYSAHGRDLAGLVPLLQRGVEKIAIYTDGEANIAAISRLYQALHIPVTYRAWVCQALGSAEEAILPWDLAQPVTALPPVHPLNLVVLLRQPQRLPPREQPIVGLGDDQFFTFADRPSLMTKREVRVLVLAELALTSTVEIVWDIGAGTGSVAVEIARLAPQATIYAIEKTAIGFQLIERNRRAFGLANLIPLQGTAPQCLRDLPPPDRVFIGGSGAQLLANLDYCWSHLNAGGRLVLAIATLEHQGQVLHWCQTHQINPQVLQVQLSRSVPLGQGHRLHPLNPVTLMTLTQGLEHHHHHH” here?
Answer: The value was “not soluble”.

Question: For “MWHGMGDCCCNPLSMGSVKKLFEEQIPGVYVHSLQLGSSITKDIEHGFYANTNELVYMACIKIKNDPELKNGYNAIGFSQGAQFLRAVAQRCPNPPMKNLVSVGGQHQGVFGAPYCIGDNIMCNGVRRLIDLGAYLPFVQKRVVQAQYWHDPNQVEEYKKRSIFLADINNENNNNPTYKRNLLSLKNLVLVKFNQDHMVVPKDSSWFGFYKDGDIDTILPMNETDLYKEDRIGLKKLHESGRIHFMDVDGDHLQIPRSVLVNDIIKKYFM”, which “soluble on expression in E. coli” value is on record?
Answer: Its value is “not soluble”.

Question: Which “soluble on expression in E. coli” value does the source give for “MGHHHHHHSHMARPWTEDGDWTEPGAPGGTEDRPSGGGKANRAHPIKQRPFPYEHKNTWSAQNCKNGSCVLDLSKCLFIQGKLLFAEPKDAGFPFSQDINSHLASLSMARNTSPTPDPTVREALCAPDNLNASIESQGQIKMYINEVCRETVSRCCNSFLQQAGLNLLISMTVINNMLAKSASDLKFPLISEGSGCAKVQVLKPLMGLSEKPVLAGELVGAQMLFSFMSLFIRNGNREILLETPAP” here?
Answer: Its value is “not soluble”.

Question: Which “soluble on expression in E. coli” value does the source give for “PRERVSRVHASSGTTGKPTVVGYTARDLDNWANLVARSIRAAGGKPGDIVHVSYGYGLFTGGLGAHYGAERLGCTVVPMSGGQTEKQVQLINDFRPDIIMVTPSYYCNILEEQRRQGMDPRQSSLRIGIFGAEPWTGQMRADIEAEGGIDAVDIYGLSEVMGPGVASECVETKDGPVV” here?
Answer: Its value is “not soluble”.

Question: With “MDSDPLGVFPNSPKYHPYYSQTTEFGGVIDLGLSLRTIQHEIYHSSGQIMTCGKGYCSNEGYRRKWGYVKVTMDGLVVGRKVCVLDHGSYSTLAHQLEDMFGMQSVSGLRLFQMESEFCLVYRDEEGLWRNAGDVPWNEFIESVERLRITRRNDAVLPF” as the sequence, how does the “soluble on expression in E. coli” value read?
Answer: The value was “not soluble”.

Question: With “MHISFIIPAFNEEQLIEPCLRSITDAVAANRSYGYTSEIIVVDNNSTDATAQLAKQAGAQVVFEPVNHIARARTAGAGAARGDWLVFMDADCLLNAGLVGDIFELIRQGRHIGAGSTLYMPGQPWWAEMLLRIWTFLSVQLGWAAGALIVCNAAAFREVGGFDLTLYAAEEIDLSQKLKKYGRKRKLKFAILNAHPLETSSRKTQLYSGWEIVGQFLRLVLSPLGTLRNKKKLPMWYDGRRLEHHHHHH” as the sequence, how does the “soluble on expression in E. coli” value read?
Answer: The value was “soluble”.

Question: With “MAHHHHHHMSTTNPTGETTEWDDLQRKYGNLPPLQKEVKEEEIYLNKLEKLEGVNPLEKKNLHELTLLEENCVDEDYLKIIEKHKANRIKEINRSRALDVFGTVYEISKDNFLTEVNEASKRNPLGEHGGRSMESTRGDEDLEEDEEQGVAASSTEGTEGTHVVIHLYSDNVLACKVINSILIQMARKHKYVKFTKGVYNRIVENYPESKLPTLLIYYNGTCIHQICNLLNNIKGGMNNLSLKTFERLMEKYNILRYPSSWMNSRQSVSDHSVNSSDVDSEEGSRYAEKGTRVRTHKQYTSFNMFDSKYTSRDYSSDEDRELKSRGYASSMLDKKVSRNEL” as the sequence, how does the “soluble on expression in E. coli” value read?
Answer: Its value is “not soluble”.

Question: Which “soluble on expression in E. coli” value does the source give for “MSLTDPNRLTLFYSPQTRATGMRVLLEELGAPYDLHVLNMKAGEQRQPAYLAINPLGKVPAIRRGDALVTEQVAITIYLADLFPGAGLAPSLDDPLRGPYLRWIAYYGSTFEPAVVDRSMQREPGPAEMSPYADYDTMLGALEAQLATGPYLLGDRFTAADVLWGIALNWTLNFGLVPKKDAFVRYAELVTARPAFRRVDLADAEMAAEGHHHHHH” here?
Answer: Its value is “soluble”.

Question: For “MAHHHHHHMCATSKENTPEFYKKYVKDIIDRIEDNARREFEAIWRDHESHPGMSKTLISDTLSEKNVKVRANILASDVFKNKKLVRYILFHYTPKTLLEVVPVDELMNRVPIAYQHAICAMWLASEYVYSTGIDSNEFDFFSFMSAHIERASAMAKEQSR”, which “soluble on expression in E. coli” value is on record?
Answer: The value was “soluble”.

Question: Which “soluble on expression in E. coli” value does the source give for “GPGSMQRGFCRVGTVTVSQAQKRAAELINSSDGFCSNVMRTVQFTPTGVKACDGESMGFSWRANQRALNGFRSTHGGALAILADTFTQIHLGAARPAAEFRSVSFEINYLEAIPENAECTCITRIVGDGESDIHHVEYSFQDERRRKVFSRGTHVLSCTK” here?
Answer: Its value is “soluble”.

Question: For “MGSDKIHHHHHHMRIPPLKAIIAFESVARTKSVNRAAEELGLTASAVSHQLSNLESQIGQPLFQRSGRGLVLTPTGERYLTDVTGSLADLSRATERASSRTEVDILRVHSSPSFGLMWLLPRLSSFQEANGDIELNLACSYENVSFSNGFYDIDVRHGYGNWDNLEVRTVRGEFIAPLASPQYLERHPVKAPEDLLAHRLIYSETPLVQWKQWFGRAGVSLAAQKTFDFSFDRSYMSLETAALGLGIALESLMLASVKIREGLLVPVFDATHAVEVGAHHLVYPRQNAELPRVKRFLAWIEREVAGHGRAS”, which “soluble on expression in E. coli” value is on record?
Answer: The value was “not soluble”.

Question: With “MAHHHHHHMAANCIFCKIIKGDIPCAKVAETSKALAFMDINPLSRGHMLVIPKEHASCLHELGMEDAADVGVLLAKASRAVAGPDGSMQYNVLQNNGSLAHQEVPHVHFHIIPKTDEKTGLKIGWDTVKVASDELAEDAKRYSEAIAKI” as the sequence, how does the “soluble on expression in E. coli” value read?
Answer: Its value is “soluble”.

Question: For “MGSDKIHHHHHHMKSNTTMSKTERLFHLLQILRRYRYPLSGQFLANELGVSTRTIYRDIAALQAQGADIEGEPGLGYVLKPGFMLPPLMFNEEEIEALVLGSRWVAKKTDTHLQQAAHNALAKIASVLPADLRQQLELSSLLIGPGEVISGEDESLALVRKAIRKELKLFIQYHDLKGNVSTRTIWPIGLGYFDQVRVLIAWCELKKDFRHFRADRIVDVENLGVCYAKRRSVLLHDWRKQNNIPG”, which “soluble on expression in E. coli” value is on record?
Answer: Its value is “not soluble”.
